We go through 18 molecules from patent publication US20240254202A1 (CONSEJO NACIONAL DE INVESTIGACIONES CIENT FICAS Y T CNICAS …, published 2024).

The EC50 is the concentration that produces a half-maximal response. Low values mean greater potency, high ones weaker potency.

In experiment [1] the target is T1, Receptor Binding Domain (RBD) of the SARS-COV-2 protein S (SARS-CoV-2, UniProt P0DTC2 319-541). The experiment in a line: ELISA, purified nanobody, RBD coated.
Experiment [2] deals with T1, Receptor Binding Domain (RBD) of the …. Kind of experiment: phage ELISA, RBD coated.
Experiment [3] addresses Peptide 16 of the Spike peptide array (B.E.I resources NR-52402). Kind of experiment: peptide array ELISA, 100 ng peptide coated, 100 ng nanobody per well. (In an ELISA, binding on a coated surface is turned into a signal by an enzyme label.)
Experiment [4] concerns the target Spike protein of wild-type virus isolate USA-WA1/2020 (SARS-CoV-2, UniProt P0DTC2 14-1273). The experiment in a line: cell-based or functional assay.
Experiment [5] concerns the target Peptide 84 of the Spike peptide array (B.E.I resources NR-52402). The experiment in a line: peptide array ELISA, 100 ng peptide coated, 100 ng nanobody per well.
Experiment [6] addresses T1, Receptor Binding Domain (RBD) of the …. The description is as told in Example 8.
Experiment [7] addresses Peptide 125 of the Spike peptide array (B.E.I resources NR-52402). The experiment in a line: peptide array ELISA, 100 ng peptide coated, 100 ng nanobody per well.
Experiment [8] has as its target Peptide 175 of the Spike peptide array (B.E.I resources NR-52402). Described as above.
The target in experiment [9] is Peptide 59 of the Spike peptide array (B.E.I resources NR-52402). The description is as above.

B1: NbCoV_78 (VHH)
VHH: QVQLQESGGGLVQAGGSLRLSCVASGRAFSSSSMGWFRQAPGKEREFVAAIRWSDDNTVYVDSVKGRFAISRDNAKNTVYLQMNSLKPEDTAVYYCAATGLGYRYAVLESRSEYRYWGQGTQVTVSS
In experiment [1], B1 returned a 50% effective concentration (EC50) of 16.6 nM.

B2: NbCoV_46 (VHH)
VHH: QVQLQESGGGLVQAGDSLRLSCAASGRTFSSLSAGWFRQAPGKEREFVAAIRWSDYNTYYVDSVKGRFTISRDNAKNTVYLQMDSLKPEDTAVYYCAATALGYRYASLESRNEYRYWGQGTQVTVSS
On to B2, for which, in experiment [2], the binding result was “no binding”.

B3: NbCoV_71 (VHH)
VHH: QVQLQESGGGLVQAGGSLRLSCAASGLTFGYTATAWFRQAPGKEREFVARIFKRGGYTYYSDSVKGRFTVSRDSAKDTVYLQMNSLKSEDTAVYYCAVAREWSDLDFRDGYDYWGQGTQVTVSS
Take B3: the EC50 in experiment [1] turned out to be 1.63 nM.

B4: NbCoV_110 (VHH)
VHH: QVQLQESGGGLVQAGDSLRLSCAASGRTFGSHATAWFRQAPGKEREFVARIFWRGDYTYYADSVKGRFTISRDSAKNTVYLQMNSLKSEDTAVYYCAVARSWSDLDFENGYDYWGQGTQVTVSS
notes: also called Nb 110
As to B4, the midpoint of the response in experiment [1], the EC50, lay at 32.4 nM. Moreover, the “OD 405 nm” value in experiment [3] came to 0.64 OD 405 nm.

B5: NbCoV_43 (VHH)
VHH: QVQLQESGGGLVQPGGSLRLSCVASGSIGSINHMAWFRKPPGKERELVASITLAPDEIAYYADSVKGRFAISKGNAQPTLYLQMNSLKPEDTAVYYCHFRQIRANAHDVYWGQGTQVTVSS
notes: also called Nb 43
Regarding B5, the “wildtype VN, plaque reduction assay, neutralizing activity” value (“wildtype VN, plaque reduction assay” below) in [4] was 3.12 nM. In addition, it took 0.18 nM to reach a half-maximal effect in [1] (EC50). Also, the “OD 405 nm” value in [5] is 0.555 OD 405 nm.

B6: NbCoV_10 (VHH)
VHH: QVQLQESGGGLVQAGGSLHLSCTASGSENMLRWYAVGWYRQAPGKQRELVATITRGGSTNVVDSVKGRFTISRDNAKNMVALQMNSLKPEDTAVYSCAAAYAPYTDYHPVEYVYWGQGTQVTVSS
notes: also called Nb 10; 10 Mebus
Regarding B6, the binding result in experiment [6] is “binds”. For the same molecule, the “OD 405 nm” value in experiment [5] was 0.226 OD 405 nm.

B7: NbCoV_32 (VHH)
VHH: QVQLQESGGGSVQPGGSLRLSCAVSRSRFSLVTMGWYRQAPGKERELVAAIAIGGSTKYADSVKGRFTISRDNAKSTVYLQMNSLQPEDTAVYYCNEARVYDSNWYPRDYWGQGTQVTVSS
Molecule B7 yielded an EC50 in [1] of 83.6 nM.

B8: NbCoV_31 (VHH)
VHH: QVQLQESGGGLVQAGGSLRLSCAASGRTFSRSAVAWFRQAPGKEREFVAGISWSGRNVNYANSVKGRFTISRDSTKNTVYLQMNSLKPEDTAVYYCATSQFGSGTSDSEQYDYWGQGTQVTVSS
On to B8, for which a half-maximal effect in experiment [1] (EC50) was put at 137 nM. Against the preceding molecule, the EC50 is about 1.6-fold higher.

B9: NbCoV_44 (VHH)
VHH: QVQLQESGGGLVQAGGSLRLSCAASGRTVSYRVMGWFRQAPGKEREFVAFVDWSSGTAYYAESVQGRFIMSRDTADNTGFLQMNNLKPEDTAVYYCAADPFFRVIAYSDPKRYSYWGQGTQVTVSS
As to B9, the EC50 in experiment [1] came to 16.8 nM.

B10: NbCoV_136 (VHH)
VHH: QVQLQESGGGLVQTGGSLRLSCAASGRTASSYTMGWFRQAAGKERDFVAAIRESLGYTNYADSVKGRFTISRDNANNTVYLQMNSLKPEDTAVYYCAAYEGIRYSSTRADFYNYWGQGTQVTVSS
With B10, a half-maximal effect in [1] (EC50) was put at 13.4 nM.

B11: NbCoV_48 (VHH)
VHH: QVQLQESGGGLVQPGGSLRLSCVASRSIGSINHMAWYRKAPGKERELVASITLSPSETVYYTEVVKGRFAISKGNAQNTLYLQMNSLKPEDTAVYYCHFRQIRAIADDVYWGQGTQVTVSS
In turn, B11 came in with an EC50 in experiment [1] of 1.78 nM. This EC50 lies about 7.5-fold lower than the previous one.

B12: NbCoV_104 (VHH)
VHH: QVQLQESGGGLVQPGGSLRLSCAASGSIFRVMGWYRQAPGKEHDLVATITRSGDTNYADSVKGRFTISRDNTKNTVYLQMNNLKPEDTDVYYCYARNFVGHNPDVWGQGTQVTVSS
notes: also called Nb 104
For the molecule B12, in experiment [4], the “wildtype VN, plaque reduction assay” value was found to be 0.977 nM. In experiment [1], this molecule gave an EC50 of 5.45 nM. Besides, the “OD 405 nm” value in [7] was 0.731 OD 405 nm; in [8] it was 0.503 OD 405 nm.

B13: NbCoV_27 (VHH)
VHH: QVQLQESGGGLVQPGGSLRLSCAASGSGFSLRVMGWYRQAPGKEHRLVATISRTGITNYADSVKGRFTISRDNAKDTVYLQMNNLKPEDTDVYYCYARNFVGDDFNLWGQGTQVTVSS
In [1], B13 displayed an EC50 of 0.7 nM.

B14: NbCoV_125 (VHH)
VHH: QVQLQESGGGLVQPGGSLRLSCAASAHFFSGGAMGWYRQAPGKERELVATITGGGDTNYAEHVKGRCTISSDISDNTVYLQMISLKPDDTAVYYCYARDLLQHPFWGQGTQVTVSS
With B14, in experiment [2], the binding result is reported as “binds”. For the same molecule, the “OD 405 nm” value in experiment [5] was found to be 0.214 OD 405 nm.

B15: NbCoV_29 (VHH)
VHH: QVQLQESGGGLVQAGGSLRLSCAASGRTLYAMGWFRQAPGKEREFVAAKSWNGGNTYYADSVKGRFTISKDNAKNTVYLQMNSLKPEDTAVYNCAASSWDSRGSSNYVHYDYWGQGTQVTVSS
On to B15, for which the EC50 in [1] turned out to be 55.9 nM.

B16: NbCoV_45 (VHH)
VHH: QVQLQESGGGLVQAGGSLRLSCVASGRTLYAMGWFRQAPGKEREFVAATSWNGGNTNYGESVKGRFTISKDNAKNTVYLQMNSLKPEDTAVYNCAASSRDSRGTSTYASYDYWGQGTQVTVSS
notes: also called Nb 45; Nb45
As to B16, the binding result in experiment [2] is recorded as “no binding”.

B17: NbCoV_39 (VHH)
VHH: QVQLQESGGGLVQAGGSLRLSCAASGRTFSSTAMAWFRQAPGQEREFVATISWSGDNTKYADSVKGRFTISRDNAKNTVYLQMNSLKPEDTAVYYCAADPGNFGVPIEYFMFDYWGQGTQVTVSS
notes: also called Nb 39; 39A
Turning to B17, the “wildtype VN, plaque reduction assay” value in experiment [4] came out at 0.244 nM. This molecule also displayed an EC50 in [1] of 0.29 nM. Moreover, the “OD 405 nm” value in [9] is 0.423 OD 405 nm.

B18: NbCoV_145 (VHH)
VHH: QVQLQESGGGLVQAGGSLRLSCAASGRTFSSYAMGWFRQAPGKEREFVAVINWSGANTRYTDSVKGRFSISRDNAKNTVYLQMNSLKPEDTAVYYCAADPGNFGVPIEHFMYDYWGQGTQVTVSS
notes: also called Nb 145
B18 had an EC50 in [1] of 4.63 nM.
